The labels stand for the following.
B1: OR4K15 (parent)
chain: GUUAACGGUCAUAGGCCAUGGAAACUAGGAGCACCAUUUCGCUGCCAGUGAAGAAAUGAACAAAGAAAAUCUGGGCCAGGCAGGCAUCAAAAGAAAUAGUCUUGCGCUCAACCAGAAAGUCUGUAAUCAUUUUAAGGGUA

The variants in the data set derive from B1. Nature of the data set: self-cleavage, relative activity (ratio to wild type); higher = more cleavage; in vitro, sequencing; the parent is a self-cleaving ribozyme.
Regarding GUUAACGGUCAUAGGCCAUGGAAACUAGGAGCACCAUUUCGCUGCCAGUGUAGAAAUGAACAAAGAAAAUCUGUGCCAGGCAGGCAUCAAAAGAAAUAGUCUUGCGCUCAACCAGAAAGUCUGUAAUCAUUUUAAGGGUA [A51U G74U], the self-cleavage stood at 0.25.

As for GUUAACGGUCAUAGGCCAUGGAUACUAGGAGCACCAUUUCGCUGCCAGUGAAGAAAUGAACAAAGAAAAUCUGGGCCAGGCAGGCAUCAAAAGAAAUAGUCUCGCGCUCAACCAGAAAGUCUGUAAUCAUUUUAAGGGUA [A23U U103C], the self-cleavage turned out to be 0.03.

GUUAACGGUCAUAGGCCAUGGAAACUAGGAGCACCAUUUCGCUGCCAAUGAAGAAAUGGACAAAGAAAAUCUGGGCCAGGCAGGCAUCAAAAGAAAUAGUCUUGCGCUCAACCAGAAAGUCUGUAAUCAUUUUAAGGGUA [G48A A59G]: the self-cleavage was 1.25. On to GUUAACGGUCAUAGGCCAUGGAAACUAGGAGCACCAUUUCGCUGCCAGUGAAGAAACGAACAAAGAAAAUCUGGGCCAGGCAGGCUUCAAAAGAAAUAGUCUUGCGCUCAACCAGAAAGUCUGUAAUCAUUUUAAGGGUA [U57C A86U], for which the self-cleavage came to 1.93. As to GUUAACGGUCAUAGGCCAUGGGAACUAGGAGCACCAUUUCGCUGCCAGUGAAGAAAUGAACAAAGAAAAUCUGGGCCAGGCAGGCAUCAAAAGAAAUAGUCUUGCGCUCAACCAGAAAGUCUGUAAUCAUUUUAAAGGUA [A22G G136A], the self-cleavage was determined as 0.6. Next, GUUACCGGUCAUAGGCCAUGGAAACUAGGAGCACCAUUUCGCUGCCAGUGAAGAAAUGAACAAAGAAAAUCUGGGCCAGGCAGGCAUCAAAAGAAAUAGUCUUGCGCUCAGCCAGAAAGUCUGUAAUCAUUUUAAGGGUA [A5C A111G]: 0.16; GUUAACGGUCAUAGGCCAUGGAAACUAGGUGCACCAUUUCGCUGCCAGUGAAGAAAUGAACAAAGAAAAUCUGGGCCAGGCAGGCAUCAAAAGAAAUAGUCUUGCGCUCAACCAGAAGGUCUGUAAUCAUUUUAAGGGUA [A30U A118G]: 1.45. Next, GUUAACGGUCAUAGGCCAUGGAAACUAGGAGCACCAUUUCGCUGCCAGUGAAGAAAUGAACAAAGAAAAUCUGGGCCAGGCAGGCAUCACAAGAAAUAGUCUUGCGCUCAACCAGAAAGUCUGUAAUCAUUUUAAGGGUA [A90C]: 1.55. With GUUAACGGUCAUAGGCCAUGGAAACUAGGAGCACCAUUUCGCUGCCAGUGAAGAAAUGAACAAAGAAAAUCUGGGCCAGGCAGGCAUCAAAAGAAAUAGUCUUGCGCUCAACCGGAAAGUCUGUAAUUAUUUUAAGGGUA [A114G C128U], the self-cleavage was determined as 0.11. In the case of GUUAACGGUCAUAGGCCAUGGAAACUAGGAGCACCAUUUCGCUGCCAGUGAAGAAAUGAACAAAGAAAAUCUUGGCCAGGCAGGCAUCAAAAGAAAUAGUCUUGUGCUCAACCAGAAAGUCUGUAAUCAUUUUAAGGGUA [G73U C105U] it was 0.01. For GUUAACGGACAUAGGCCAUGGAAACUAGGAGCACCAUUUCGCUGCCAGUGAAGAAAUGAACAAAGAAAAUCUGGGCCAGGCAGGCAUCAAAAGAAAUAGUCUUGCGCUCAACCAGAAGGUCUGUAAUCAUUUUAAGGGUA [U9A A118G], the self-cleavage worked out at 0.9. Next, GGUAACGGUCAUAGGCCAUGGAAACUAGGAGCACCAUUUCGCUGCCAGUGAAGAAGUGAACAAAGAAAAUCUGGGCCAGGCAGGCAUCAAAAGAAAUAGUCUUGCGCUCAACCAGAAAGUCUGUAAUCAUUUUAAGGGUA [U2G A56G]: 1.23.

For the variant GUUAACGGUCAUAGGCCAUGGAGACUAGGAGCACCAUUUCGCUGCCAGUAAAGAAAUGAACAAAGAAAAUCUGGGCCAGGCAGGCAUCAAAAGAAAUAGUCUUGCGCUCAACCAGAAAGUCUGUAAUCAUUUUAAGGGUA [A23G G50A], the self-cleavage was found to be 1.9. In the case of GUUAACGGUCAUAGGCCAUGGAAACUAGGAGCACCAUUUCGCUGCCAGUGAGGAAAUGAACAAAGAAAAUCUGGGCCAGGCAGGCAUCAAAAGAAAUAGUCUUGCGCUCAACCAGAAAGUCUGUAAACAUUUUAAGGGUA [A52G U127A], the self-cleavage worked out at 1.73. In the case of GUUAACGGUCAUAGGCCAUGGAAACUAGGAGCACCAUUUCGCUGCCAGUGAAGAAAUGAACAAAGAAAAUCUGGGCCAGGCAGGCAUCAAAAGAAAUAGUCUUGCGCUCAACCAGAAAGUCUGUAAUCAUUUUAAAGGUU [G136A A140U] it was 2.39; in that of GUUAACGGUCAUAGGCCAUGGAAACUAGGAGCACCAGUUCGCUGCCAGUGAAGAAAUGAACAAAGAAAAUCUGGGCCAGGCAGGCAUCAAAAGAAAUAGUCUUGCGCUCAACCAGAAAGUCUGUAAUCAUUUUAAGGGUA [U37G], 1.62; in that of GUUAACGGUCAUAGGCCAUGGAAACUAGGAGCACCAUUUCGCUGCCAGUGAAGAAAUGAACAAAGAAAAUCUGGGCCAGGCAGGCAUCAAAAAAAAUAGUCUUGCGCUCAACCAGAAAGUCUGUAAUCAUUUUAGGGGUA [G93A A135G], 2.27. In the case of GUUAACGGUCAUAGGCCAUGGAAACUAGGAGCACCAUUUCGCAGCCAGUGAAGAAAUGAACAAAGAAAAUCUGGGCCAGGCAGGCAUCAAAAGAAAUAGUCAUGCGCUCAACCAGAAAGUCUGUAAUCAUUUUAAGGGUA [U43A U102A] it was 0.78; in that of GUUAACGGUCAUAGGCCAUGGAAACUAGGAGCACCAUUUCGCUGCCAGAGAAGAAAUGAACAAAGAAAAUCUGGGCCAGGCAGGCAUCAAAAGAGAUAGUCUUGCGCUCAACCAGAAAGUCUGUAAUCAUUUUAAGGGUA [U49A A95G], 1.76. In the case of GUUAACGGUCAUAGGCCAUGGAAACUAGGAGCACCAUUUCGCUGCCAGUGAAGAAAUGAACAAAGAAAAUCUGGGCCAGGCAGGCAUCAAAAGAAAUAGUCUUGCGCUCAACCAGUAAGUCUGUAAUCUUUUUAAGGGUA [A116U A129U] it was 0.29. As for GUUAACGGUCAUAGGCCAUGGAAACUAGGAGCACCAUUUCGCUGCCAGUGAAGGAAUGAACAAAGAUAAUCUGGGCCAGGCAGGCAUCAAAAGAAAUAGUCUUGCGCUCAACCAGAAAGUCUGUAAUCAUUUUAAGGGUA [A54G A67U], the self-cleavage was found to be 2.17.

Source of the values: the RNAGym collection of RNA variant scans (doi:10.7554/elife.90254).
